According to patent publication US20210347913A1 (published 2021):

T1: PTK7 on PTK7 positive cell line SaOS-2 (osteosarcoma) (UniProt Q13308 31-1070)
T1 chain: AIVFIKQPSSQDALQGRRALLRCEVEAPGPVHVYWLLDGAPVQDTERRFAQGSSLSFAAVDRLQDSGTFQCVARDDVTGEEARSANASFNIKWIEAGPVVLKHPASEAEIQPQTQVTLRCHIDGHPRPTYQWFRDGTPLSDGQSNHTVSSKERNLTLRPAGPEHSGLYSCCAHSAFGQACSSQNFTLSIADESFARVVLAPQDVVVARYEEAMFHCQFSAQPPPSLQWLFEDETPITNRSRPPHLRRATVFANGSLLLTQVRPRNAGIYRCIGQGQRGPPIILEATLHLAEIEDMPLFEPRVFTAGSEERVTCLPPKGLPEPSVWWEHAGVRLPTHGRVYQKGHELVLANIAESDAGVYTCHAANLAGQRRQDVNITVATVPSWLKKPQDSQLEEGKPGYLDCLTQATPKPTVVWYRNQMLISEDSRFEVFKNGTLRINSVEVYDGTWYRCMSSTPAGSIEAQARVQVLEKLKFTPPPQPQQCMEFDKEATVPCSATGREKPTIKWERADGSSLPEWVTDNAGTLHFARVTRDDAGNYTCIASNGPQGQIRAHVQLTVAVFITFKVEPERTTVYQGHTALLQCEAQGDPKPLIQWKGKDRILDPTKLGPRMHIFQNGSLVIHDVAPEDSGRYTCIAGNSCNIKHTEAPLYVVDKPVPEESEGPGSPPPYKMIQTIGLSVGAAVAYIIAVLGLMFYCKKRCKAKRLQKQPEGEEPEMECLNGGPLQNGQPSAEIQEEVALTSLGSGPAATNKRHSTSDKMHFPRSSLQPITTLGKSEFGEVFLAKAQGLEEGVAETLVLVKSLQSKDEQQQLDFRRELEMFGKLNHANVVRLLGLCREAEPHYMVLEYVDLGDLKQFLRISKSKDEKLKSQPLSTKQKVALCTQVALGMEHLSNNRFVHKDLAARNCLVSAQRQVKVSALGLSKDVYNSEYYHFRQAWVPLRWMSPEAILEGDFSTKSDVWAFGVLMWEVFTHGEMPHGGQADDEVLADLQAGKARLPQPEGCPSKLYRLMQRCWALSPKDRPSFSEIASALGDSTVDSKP

B1: 181 M8 (antibody)
chain: QGWCTIPSSMSIRLCGSSGGSGGSGGSGGGPLGLAGGSSGQVQLVESGGGVVQPGRSLRLSCAASGFTFSSYGMHWVRQAPGKGLEWVAVIWDDGSNKYYVDSVKGRFTISRDNSKNTLYLQMNSLRAEDTAVYYCARDDYYGSGSFNSYYGTDVWGQGTTVTVSSGGGGSGGGGSGGGGSEIVLTQSPATLSLSPGERATLSCRASQSVSIYLAWYQQKPGQAPRLLIYDASNRATGIPARFSGSGSGTDFTLTISSLEPEDFAVYYCQQRSNWPPFTFGPGTKVDIKSAAAFVPVFLPAKPTTTPAPRPPTPAPTIASQPLSLRPEACRPAAGGAVHTRGLDFACDIYIWAPLAGTCGVLLLSLVITLYCNHRNRSKRSRLLHSDYMNMTPRRPGPTRKHYQPYAPPRDFAAYRSRVKFSRSADAPAYQQGQNQLYNELNLGRREEYDVLDKRRGRDPEMGGKPRRKNPQEGLYNELQKDKMAEAYSEIGMKGERRRGKGHDGLYQGLSTATKDTYDALHMQALPPR
B2: 181 M3 (antibody)
chain: QGCTMPPSPRSKVICGSSGGSGGSGGSGGGPLGLAGGSSGQVQLVESGGGVVQPGRSLRLSCAASGFTFSSYGMHWVRQAPGKGLEWVAVIWDDGSNKYYVDSVKGRFTISRDNSKNTLYLQMNSLRAEDTAVYYCARDDYYGSGSFNSYYGTDVWGQGTTVTVSSGGGGSGGGGSGGGGSEIVLTQSPATLSLSPGERATLSCRASQSVSIYLAWYQQKPGQAPRLLIYDASNRATGIPARFSGSGSGTDFTLTISSLEPEDFAVYYCQQRSNWPPFTFGPGTKVDIKSAAAFVPVFLPAKPTTTPAPRPPTPAPTIASQPLSLRPEACRPAAGGAVHTRGLDFACDIYIWAPLAGTCGVLLLSLVITLYCNHRNRSKRSRLLHSDYMNMTPRRPGPTRKHYQPYAPPRDFAAYRSRVKFSRSADAPAYQQGQNQLYNELNLGRREEYDVLDKRRGRDPEMGGKPRRKNPQEGLYNELQKDKMAEAYSEIGMKGERRRGKGHDGLYQGLSTATKDTYDALHMQALPPR
B3: 181 M4 (antibody)
chain: QGCTFPNTTMQRTFCGSSGGSGGSGGSGGGPLGLAGGSSGQVQLVESGGGVVQPGRSLRLSCAASGFTFSSYGMHWVRQAPGKGLEWVAVIWDDGSNKYYVDSVKGRFTISRDNSKNTLYLQMNSLRAEDTAVYYCARDDYYGSGSFNSYYGTDVWGQGTTVTVSSGGGGSGGGGSGGGGSEIVLTQSPATLSLSPGERATLSCRASQSVSIYLAWYQQKPGQAPRLLIYDASNRATGIPARFSGSGSGTDFTLTISSLEPEDFAVYYCQQRSNWPPFTFGPGTKVDIKSAAAFVPVFLPAKPTTTPAPRPPTPAPTIASQPLSLRPEACRPAAGGAVHTRGLDFACDIYIWAPLAGTCGVLLLSLVITLYCNHRNRSKRSRLLHSDYMNMTPRRPGPTRKHYQPYAPPRDFAAYRSRVKFSRSADAPAYQQGQNQLYNELNLGRREEYDVLDKRRGRDPEMGGKPRRKNPQEGLYNELQKDKMAEAYSEIGMKGERRRGKGHDGLYQGLSTATKDTYDALHMQALPPR

Key:
[1] = biological target: T1, PTK7 on PTK7 positive cell line SaOS-2 …; experiment: FACS binding SaOS-2; +MMP14
[2] = biological target: T1, PTK7 on PTK7 positive cell line SaOS-2 …; experiment: FACS binding SaOS-2; -MMP14
[3] = biological target: T1, PTK7 on PTK7 positive cell line SaOS-2 …; experiment: FACS binding SaOS-2

Binder	EC50 [1] [µM]	EC50 [2] [µM]	EC50 [3] [µM]
B1	0.0008	0.0969	0.101
B2	0.00095	0.406	0.225
B3	0.00041	0.0208	0.0167
